Patent publication US12679878B2, “CRF2 receptor agonists and their use in therapy” (SANOFI, priority 2020, dated 2026)
Starred links: 1 amine or outer side, 2 acyl side, 3 side chain; linkers in the order of their positions; H or OH if unused. Non-standard residues stand in square brackets, D forms with d. Groups on a side chain read outwards from the residue. No end group written: not given here. *: point of attachment. C16 diacid = O=C(O)CCCCCCCCCCCCCCC(=O)*; γGlu = O=C(O)[C@H](CCC(=O)[*:2])N[*:1]; AEEA = NCCOCCOCC(=O)O; Aib = CC(C)(N)C(=O)O

B1: peptide of SEQ ID NO: 201 (peptide)
peptide: IVLSLD[dV]PIKLK([AEEA-AEEA-γGlu-γGlu-C16 diacid])QILLKQERQKK[Aib]RQKAEKNKQILAQV-NH2
modifications: N-terminus assumed
SMILES: CC[C@H](C)[C@H](N)C(=O)N[C@H](C(=O)N[C@@H](CC(C)C)C(=O)N[C@@H](CO)C(=O)N[C@@H](CC(C)C)C(=O)N[C@@H](CC(=O)O)C(=O)N[C@@H](C(=O)N1CCC[C@H]1C(=O)N[C@H](C(=O)N[C@@H](CCCCN)C(=O)N[C@@H](CC(C)C)C(=O)N[C@@H](CCCCNC(=O)COCCOCCNC(=O)COCCOCCNC(=O)CC[C@H](NC(=O)CC[C@H](NC(=O)CCCCCCCCCCCCCCC(=O)O)C(=O)O)C(=O)O)C(=O)N[C@@H](CCC(N)=O)C(=O)N[C@H](C(=O)N[C@@H](CC(C)C)C(=O)N[C@@H](CC(C)C)C(=O)N[C@@H](CCCCN)C(=O)N[C@@H](CCC(N)=O)C(=O)N[C@@H](CCC(=O)O)C(=O)N[C@@H](CCCNC(=N)N)C(=O)N[C@@H](CCC(N)=O)C(=O)N[C@@H](CCCCN)C(=O)N[C@@H](CCCCN)C(=O)NC(C)(C)C(=O)N[C@@H](CCCNC(=N)N)C(=O)N[C@@H](CCC(N)=O)C(=O)N[C@@H](CCCCN)C(=O)N[C@@H](C)C(=O)N[C@@H](CCC(=O)O)C(=O)N[C@@H](CCCCN)C(=O)N[C@@H](CC(N)=O)C(=O)N[C@@H](CCCCN)C(=O)N[C@@H](CCC(N)=O)C(=O)N[C@H](C(=O)N[C@@H](CC(C)C)C(=O)N[C@@H](C)C(=O)N[C@@H](CCC(N)=O)C(=O)N[C@H](C(N)=O)C(C)C)[C@@H](C)CC)[C@@H](C)CC)[C@@H](C)CC)C(C)C)C(C)C
B2: peptide of SEQ ID NO: 221 (peptide)
peptide: IVLSLD[dV]PTKLK([γGlu-C16 diacid])QKLLKQERQRKEREQAEKNARILARV-NH2
modifications: N-terminus assumed
SMILES: CC[C@H](C)[C@H](N)C(=O)N[C@H](C(=O)N[C@@H](CC(C)C)C(=O)N[C@@H](CO)C(=O)N[C@@H](CC(C)C)C(=O)N[C@@H](CC(=O)O)C(=O)N[C@@H](C(=O)N1CCC[C@H]1C(=O)N[C@H](C(=O)N[C@@H](CCCCN)C(=O)N[C@@H](CC(C)C)C(=O)N[C@@H](CCCCNC(=O)CC[C@H](NC(=O)CCCCCCCCCCCCCCC(=O)O)C(=O)O)C(=O)N[C@@H](CCC(N)=O)C(=O)N[C@@H](CCCCN)C(=O)N[C@@H](CC(C)C)C(=O)N[C@@H](CC(C)C)C(=O)N[C@@H](CCCCN)C(=O)N[C@@H](CCC(N)=O)C(=O)N[C@@H](CCC(=O)O)C(=O)N[C@@H](CCCNC(=N)N)C(=O)N[C@@H](CCC(N)=O)C(=O)N[C@@H](CCCNC(=N)N)C(=O)N[C@@H](CCCCN)C(=O)N[C@@H](CCC(=O)O)C(=O)N[C@@H](CCCNC(=N)N)C(=O)N[C@@H](CCC(=O)O)C(=O)N[C@@H](CCC(N)=O)C(=O)N[C@@H](C)C(=O)N[C@@H](CCC(=O)O)C(=O)N[C@@H](CCCCN)C(=O)N[C@@H](CC(N)=O)C(=O)N[C@@H](C)C(=O)N[C@@H](CCCNC(=N)N)C(=O)N[C@H](C(=O)N[C@@H](CC(C)C)C(=O)N[C@@H](C)C(=O)N[C@@H](CCCNC(=N)N)C(=O)N[C@H](C(N)=O)C(C)C)[C@@H](C)CC)[C@@H](C)O)C(C)C)C(C)C
B3: peptide of SEQ ID NO: 202 (peptide)
peptide: IVLSLD[dV]PIGLK([AEEA-AEEA-γGlu-C16 diacid])QILLKQERQKK[Aib]REQAETNKQILAQV-NH2
modifications: N-terminus assumed
SMILES: CC[C@H](C)[C@H](N)C(=O)N[C@H](C(=O)N[C@@H](CC(C)C)C(=O)N[C@@H](CO)C(=O)N[C@@H](CC(C)C)C(=O)N[C@@H](CC(=O)O)C(=O)N[C@@H](C(=O)N1CCC[C@H]1C(=O)N[C@H](C(=O)NCC(=O)N[C@@H](CC(C)C)C(=O)N[C@@H](CCCCNC(=O)COCCOCCNC(=O)COCCOCCNC(=O)CC[C@H](NC(=O)CCCCCCCCCCCCCCC(=O)O)C(=O)O)C(=O)N[C@@H](CCC(N)=O)C(=O)N[C@H](C(=O)N[C@@H](CC(C)C)C(=O)N[C@@H](CC(C)C)C(=O)N[C@@H](CCCCN)C(=O)N[C@@H](CCC(N)=O)C(=O)N[C@@H](CCC(=O)O)C(=O)N[C@@H](CCCNC(=N)N)C(=O)N[C@@H](CCC(N)=O)C(=O)N[C@@H](CCCCN)C(=O)N[C@@H](CCCCN)C(=O)NC(C)(C)C(=O)N[C@@H](CCCNC(=N)N)C(=O)N[C@@H](CCC(=O)O)C(=O)N[C@@H](CCC(N)=O)C(=O)N[C@@H](C)C(=O)N[C@@H](CCC(=O)O)C(=O)N[C@H](C(=O)N[C@@H](CC(N)=O)C(=O)N[C@@H](CCCCN)C(=O)N[C@@H](CCC(N)=O)C(=O)N[C@H](C(=O)N[C@@H](CC(C)C)C(=O)N[C@@H](C)C(=O)N[C@@H](CCC(N)=O)C(=O)N[C@H](C(N)=O)C(C)C)[C@@H](C)CC)[C@@H](C)O)[C@@H](C)CC)[C@@H](C)CC)C(C)C)C(C)C
B4: peptide of SEQ ID NO: 222 (peptide)
peptide: IVLSLD[dV]PTKLK([γGlu-C16 diacid])QKLLKQERQRKEREQAEKNVRILERV-NH2
modifications: N-terminus assumed
SMILES: CC[C@H](C)[C@H](N)C(=O)N[C@H](C(=O)N[C@@H](CC(C)C)C(=O)N[C@@H](CO)C(=O)N[C@@H](CC(C)C)C(=O)N[C@@H](CC(=O)O)C(=O)N[C@@H](C(=O)N1CCC[C@H]1C(=O)N[C@H](C(=O)N[C@@H](CCCCN)C(=O)N[C@@H](CC(C)C)C(=O)N[C@@H](CCCCNC(=O)CC[C@H](NC(=O)CCCCCCCCCCCCCCC(=O)O)C(=O)O)C(=O)N[C@@H](CCC(N)=O)C(=O)N[C@@H](CCCCN)C(=O)N[C@@H](CC(C)C)C(=O)N[C@@H](CC(C)C)C(=O)N[C@@H](CCCCN)C(=O)N[C@@H](CCC(N)=O)C(=O)N[C@@H](CCC(=O)O)C(=O)N[C@@H](CCCNC(=N)N)C(=O)N[C@@H](CCC(N)=O)C(=O)N[C@@H](CCCNC(=N)N)C(=O)N[C@@H](CCCCN)C(=O)N[C@@H](CCC(=O)O)C(=O)N[C@@H](CCCNC(=N)N)C(=O)N[C@@H](CCC(=O)O)C(=O)N[C@@H](CCC(N)=O)C(=O)N[C@@H](C)C(=O)N[C@@H](CCC(=O)O)C(=O)N[C@@H](CCCCN)C(=O)N[C@@H](CC(N)=O)C(=O)N[C@H](C(=O)N[C@@H](CCCNC(=N)N)C(=O)N[C@H](C(=O)N[C@@H](CC(C)C)C(=O)N[C@@H](CCC(=O)O)C(=O)N[C@@H](CCCNC(=N)N)C(=O)N[C@H](C(N)=O)C(C)C)[C@@H](C)CC)C(C)C)[C@@H](C)O)C(C)C)C(C)C
B5: peptide of SEQ ID NO: 203 (peptide)
peptide: IVLSLD[dV]PIGLK([AEEA-AEEA-γGlu-γGlu-C16 diacid])QILLKQERQKK[Aib]REQAETNKQILAQV-NH2
modifications: N-terminus assumed
SMILES: CC[C@H](C)[C@H](N)C(=O)N[C@H](C(=O)N[C@@H](CC(C)C)C(=O)N[C@@H](CO)C(=O)N[C@@H](CC(C)C)C(=O)N[C@@H](CC(=O)O)C(=O)N[C@@H](C(=O)N1CCC[C@H]1C(=O)N[C@H](C(=O)NCC(=O)N[C@@H](CC(C)C)C(=O)N[C@@H](CCCCNC(=O)COCCOCCNC(=O)COCCOCCNC(=O)CC[C@H](NC(=O)CC[C@H](NC(=O)CCCCCCCCCCCCCCC(=O)O)C(=O)O)C(=O)O)C(=O)N[C@@H](CCC(N)=O)C(=O)N[C@H](C(=O)N[C@@H](CC(C)C)C(=O)N[C@@H](CC(C)C)C(=O)N[C@@H](CCCCN)C(=O)N[C@@H](CCC(N)=O)C(=O)N[C@@H](CCC(=O)O)C(=O)N[C@@H](CCCNC(=N)N)C(=O)N[C@@H](CCC(N)=O)C(=O)N[C@@H](CCCCN)C(=O)N[C@@H](CCCCN)C(=O)NC(C)(C)C(=O)N[C@@H](CCCNC(=N)N)C(=O)N[C@@H](CCC(=O)O)C(=O)N[C@@H](CCC(N)=O)C(=O)N[C@@H](C)C(=O)N[C@@H](CCC(=O)O)C(=O)N[C@H](C(=O)N[C@@H](CC(N)=O)C(=O)N[C@@H](CCCCN)C(=O)N[C@@H](CCC(N)=O)C(=O)N[C@H](C(=O)N[C@@H](CC(C)C)C(=O)N[C@@H](C)C(=O)N[C@@H](CCC(N)=O)C(=O)N[C@H](C(N)=O)C(C)C)[C@@H](C)CC)[C@@H](C)O)[C@@H](C)CC)[C@@H](C)CC)C(C)C)C(C)C

Key:
[1] = target: T1, CRF1R receptor (anti-target) (UniProt P34998 24-415, limits assumed); test: cell-based or functional assay
T1 sequence (looked up): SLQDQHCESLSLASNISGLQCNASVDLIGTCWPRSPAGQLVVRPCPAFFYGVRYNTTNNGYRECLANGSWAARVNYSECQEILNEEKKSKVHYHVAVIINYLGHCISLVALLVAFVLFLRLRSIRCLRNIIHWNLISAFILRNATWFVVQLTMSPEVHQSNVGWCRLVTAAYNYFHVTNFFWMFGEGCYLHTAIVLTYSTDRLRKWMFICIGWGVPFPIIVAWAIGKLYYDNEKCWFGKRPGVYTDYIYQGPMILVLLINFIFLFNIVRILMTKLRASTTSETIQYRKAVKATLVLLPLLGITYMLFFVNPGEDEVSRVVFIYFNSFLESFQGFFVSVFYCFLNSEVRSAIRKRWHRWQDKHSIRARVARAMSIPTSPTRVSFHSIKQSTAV

[2] = target: human corticotropin-releasing factor 2α (CRF2α receptor) (human), Q13324; test: cell-based or functional assay
human corticotropin-releasing factor 2α (CRF2α receptor) (human), Q13324, sequence (Q13324 20-411): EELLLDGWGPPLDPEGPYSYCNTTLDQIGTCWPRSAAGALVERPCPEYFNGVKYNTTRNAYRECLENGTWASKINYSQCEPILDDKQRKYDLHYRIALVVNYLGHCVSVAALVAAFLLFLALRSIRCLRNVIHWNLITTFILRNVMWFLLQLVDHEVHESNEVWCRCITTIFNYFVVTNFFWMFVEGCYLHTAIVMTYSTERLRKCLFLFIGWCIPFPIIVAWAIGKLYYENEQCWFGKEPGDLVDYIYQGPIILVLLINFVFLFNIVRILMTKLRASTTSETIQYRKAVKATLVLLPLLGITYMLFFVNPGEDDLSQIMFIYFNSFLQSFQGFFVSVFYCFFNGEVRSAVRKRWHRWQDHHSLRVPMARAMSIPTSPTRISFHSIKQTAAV

Row | Binder | EC50 [nM] 0% HSA (cAMP, HTRF) [1] [nM] | Emax (%) (100% = Sauvagine at 100 nM) [1] | EC50 [nM], 0% HSA (cAMP, HTRF) [2] [nM]
1 | B1 | > 100 | -2.8 | 4.66
2 | B2 | > 100 | 3.2 | 2.71
3 | B3 | > 100 | 5.4 | 0.87
4 | B4 | > 100 | 6.2 | 7.38
5 | B5 | > 100 | 4.7 | 4.7
